Drawing on patent publication US20250186541A1, “DLL3 TARGETING PEPTIDES AND CONSTRUCTS THEREOF” (MARIANA ONCOLOGY INC., priority 2023, published 2025), this text covers Kd for 25 molecules.

One may read the Kd as the concentration at which binding is half-saturated. Higher therefore signals a looser complex.

Numbered stars: 1 amine (or outer) side, 2 acyl side, 3 side chain; on linkers, the order of the positions; unused ones are H or OH. Bridge positions count the residues as written; N and C are the ends. Square brackets hold non-standard residues; d marks the D form. Side chains are listed from the residue outwards. * marks the point of attachment. DOTA = O=C(O)CN1CCN(CC(=O)O)CCN(CC(=O)*)CCN(CC(=O)O)CC1; Phe(4-CF3) = N[C@@H](Cc1ccc(C(F)(F)F)cc1)C(=O)O; Trp(7-aza) = N[C@@H](Cc1c[nH]c2ncccc12)C(=O)O; Pro(4,4-F2) = O=C(O)[C@@H]1CC(F)(F)CN1; γGlu = O=C(O)[C@H](CCC(=O)[*:2])N[*:1]; 1Nal = N[C@@H](Cc1cccc2ccccc12)C(=O)O; 2Nal = N[C@@H](Cc1ccc2ccccc2c1)C(=O)O; hPhe = N[C@@H](CCc1ccccc1)C(=O)O; tBuAla = CC(C)(C)C[C@H](N)C(=O)O; Cha = N[C@@H](CC1CCCCC1)C(=O)O; NMeL = CN[C@@H](CC(C)C)C(=O)O; Cba = N[C@@H](CC1CCC1)C(=O)O; Chg = N[C@H](C(=O)O)C1CCCCC1; αMeP = C[C@@]1(C(=O)O)CCCN1; NMeA = CN[C@@H](C)C(=O)O; Nle = CCCC[C@H](N)C(=O)O; dNMeA = CN[C@H](C)C(=O)O; Ahx = NCCCCCC(=O)O Bounds are passed on as bounds.

The labels stand for the following.
T1: Biotinylated human DLL3 (human, UniProt Q9NYJ7 27-492, biotinylated (site not stated))
T1 construct: also called Delta-like ligand 3; Delta Like Canonical Notch Ligand 3
T1 sequence (looked up): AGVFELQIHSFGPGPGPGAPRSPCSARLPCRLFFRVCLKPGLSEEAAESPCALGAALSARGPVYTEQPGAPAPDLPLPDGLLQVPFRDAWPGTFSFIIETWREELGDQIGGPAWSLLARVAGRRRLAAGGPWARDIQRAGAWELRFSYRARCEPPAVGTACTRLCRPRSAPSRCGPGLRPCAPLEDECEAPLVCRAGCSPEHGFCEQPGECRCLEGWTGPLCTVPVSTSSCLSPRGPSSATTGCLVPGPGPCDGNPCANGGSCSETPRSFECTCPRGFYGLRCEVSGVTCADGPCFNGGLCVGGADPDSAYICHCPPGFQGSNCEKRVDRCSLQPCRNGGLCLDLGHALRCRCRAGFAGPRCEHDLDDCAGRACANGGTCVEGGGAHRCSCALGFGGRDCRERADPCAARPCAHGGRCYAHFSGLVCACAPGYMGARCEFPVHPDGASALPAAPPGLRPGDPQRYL

B1: Cpd #63 (peptide)
peptide: Ac-MSDCWLQ[hPhe]NCPFD[dK](DOTA)-NH2
modifications: disulfide 4-10
SMILES: CSCC[C@H](NC(C)=O)C(=O)N[C@@H](CO)C(=O)N[C@@H](CC(=O)O)C(=O)N[C@H]1CSSC[C@@H](C(=O)N2CCC[C@H]2C(=O)N[C@@H](Cc2ccccc2)C(=O)N[C@@H](CC(=O)O)C(=O)N[C@H](CCCCNC(=O)CN2CCN(CC(=O)O)CCN(CC(=O)O)CCN(CC(=O)O)CC2)C(N)=O)NC(=O)[C@H](CC(N)=O)NC(=O)[C@H](CCc2ccccc2)NC(=O)[C@H](CCC(N)=O)NC(=O)[C@H](CC(C)C)NC(=O)[C@H](Cc2c[nH]c3ccccc23)NC1=O
B2: Cpd #98 (peptide)
peptide: Ac-[Chg]SDCWK(DOTA)QWNCPFD-NH2
modifications: disulfide 4-10
SMILES: CC(=O)N[C@H](C(=O)N[C@@H](CO)C(=O)N[C@@H](CC(=O)O)C(=O)N[C@H]1CSSC[C@@H](C(=O)N2CCC[C@H]2C(=O)N[C@@H](Cc2ccccc2)C(=O)N[C@@H](CC(=O)O)C(N)=O)NC(=O)[C@H](CC(N)=O)NC(=O)[C@H](Cc2c[nH]c3ccccc23)NC(=O)[C@H](CCC(N)=O)NC(=O)[C@H](CCCCNC(=O)CN2CCN(CC(=O)O)CCN(CC(=O)O)CCN(CC(=O)O)CC2)NC(=O)[C@H](Cc2c[nH]c3ccccc23)NC1=O)C1CCCCC1
B3: Cpd #90 (peptide)
peptide: Ac-SDCWLQWK(DOTA)CPFD-NH2
modifications: disulfide 3-9
SMILES: CC(=O)N[C@@H](CO)C(=O)N[C@@H](CC(=O)O)C(=O)N[C@H]1CSSC[C@@H](C(=O)N2CCC[C@H]2C(=O)N[C@@H](Cc2ccccc2)C(=O)N[C@@H](CC(=O)O)C(N)=O)NC(=O)[C@H](CCCCNC(=O)CN2CCN(CC(=O)O)CCN(CC(=O)O)CCN(CC(=O)O)CC2)NC(=O)[C@H](Cc2c[nH]c3ccccc23)NC(=O)[C@H](CCC(N)=O)NC(=O)[C@H](CC(C)C)NC(=O)[C@H](Cc2c[nH]c3ccccc23)NC1=O
B4: Cpd #62 (peptide)
peptide: Ac-MSDCWLQ[2Nal]NCPFD[dK](DOTA)-NH2
modifications: disulfide 4-10
SMILES: CSCC[C@H](NC(C)=O)C(=O)N[C@@H](CO)C(=O)N[C@@H](CC(=O)O)C(=O)N[C@H]1CSSC[C@@H](C(=O)N2CCC[C@H]2C(=O)N[C@@H](Cc2ccccc2)C(=O)N[C@@H](CC(=O)O)C(=O)N[C@H](CCCCNC(=O)CN2CCN(CC(=O)O)CCN(CC(=O)O)CCN(CC(=O)O)CC2)C(N)=O)NC(=O)[C@H](CC(N)=O)NC(=O)[C@H](Cc2ccc3ccccc3c2)NC(=O)[C@H](CCC(N)=O)NC(=O)[C@H](CC(C)C)NC(=O)[C@H](Cc2c[nH]c3ccccc23)NC1=O
B5: Cpd #96 (peptide)
peptide: Ac-[Chg]SK(DOTA)CWLQWNCPFD-NH2
modifications: disulfide 4-10
SMILES: CC(=O)N[C@H](C(=O)N[C@@H](CO)C(=O)N[C@@H](CCCCNC(=O)CN1CCN(CC(=O)O)CCN(CC(=O)O)CCN(CC(=O)O)CC1)C(=O)N[C@H]1CSSC[C@@H](C(=O)N2CCC[C@H]2C(=O)N[C@@H](Cc2ccccc2)C(=O)N[C@@H](CC(=O)O)C(N)=O)NC(=O)[C@H](CC(N)=O)NC(=O)[C@H](Cc2c[nH]c3ccccc23)NC(=O)[C@H](CCC(N)=O)NC(=O)[C@H](CC(C)C)NC(=O)[C@H](Cc2c[nH]c3ccccc23)NC1=O)C1CCCCC1
B6: Cpd #61 (peptide)
peptide: Ac-MSDCWLQ[1Nal]NCPFD[dK](DOTA)-NH2
modifications: disulfide 4-10
SMILES: CSCC[C@H](NC(C)=O)C(=O)N[C@@H](CO)C(=O)N[C@@H](CC(=O)O)C(=O)N[C@H]1CSSC[C@@H](C(=O)N2CCC[C@H]2C(=O)N[C@@H](Cc2ccccc2)C(=O)N[C@@H](CC(=O)O)C(=O)N[C@H](CCCCNC(=O)CN2CCN(CC(=O)O)CCN(CC(=O)O)CCN(CC(=O)O)CC2)C(N)=O)NC(=O)[C@H](CC(N)=O)NC(=O)[C@H](Cc2cccc3ccccc23)NC(=O)[C@H](CCC(N)=O)NC(=O)[C@H](CC(C)C)NC(=O)[C@H](Cc2c[nH]c3ccccc23)NC1=O
B7: Cpd #49 (peptide)
peptide: Ac-MSDCWLQWNC[NMeA]FD[dK](DOTA)-NH2
modifications: disulfide 4-10
SMILES: CSCC[C@H](NC(C)=O)C(=O)N[C@@H](CO)C(=O)N[C@@H](CC(=O)O)C(=O)N[C@H]1CSSC[C@@H](C(=O)N(C)[C@@H](C)C(=O)N[C@@H](Cc2ccccc2)C(=O)N[C@@H](CC(=O)O)C(=O)N[C@H](CCCCNC(=O)CN2CCN(CC(=O)O)CCN(CC(=O)O)CCN(CC(=O)O)CC2)C(N)=O)NC(=O)[C@H](CC(N)=O)NC(=O)[C@H](Cc2c[nH]c3ccccc23)NC(=O)[C@H](CCC(N)=O)NC(=O)[C@H](CC(C)C)NC(=O)[C@H](Cc2c[nH]c3ccccc23)NC1=O
B8: Cpd #91 (peptide)
peptide: Ac-SK(DOTA)CWLQWNCPFD-NH2
modifications: disulfide 3-9
SMILES: CC(=O)N[C@@H](CO)C(=O)N[C@@H](CCCCNC(=O)CN1CCN(CC(=O)O)CCN(CC(=O)O)CCN(CC(=O)O)CC1)C(=O)N[C@H]1CSSC[C@@H](C(=O)N2CCC[C@H]2C(=O)N[C@@H](Cc2ccccc2)C(=O)N[C@@H](CC(=O)O)C(N)=O)NC(=O)[C@H](CC(N)=O)NC(=O)[C@H](Cc2c[nH]c3ccccc23)NC(=O)[C@H](CCC(N)=O)NC(=O)[C@H](CC(C)C)NC(=O)[C@H](Cc2c[nH]c3ccccc23)NC1=O
B9: Cpd #50 (peptide)
peptide: Ac-MSDCWLQWNC[dNMeA]FD[dK](DOTA)-NH2
modifications: disulfide 4-10
SMILES: CSCC[C@H](NC(C)=O)C(=O)N[C@@H](CO)C(=O)N[C@@H](CC(=O)O)C(=O)N[C@H]1CSSC[C@@H](C(=O)N(C)[C@H](C)C(=O)N[C@@H](Cc2ccccc2)C(=O)N[C@@H](CC(=O)O)C(=O)N[C@H](CCCCNC(=O)CN2CCN(CC(=O)O)CCN(CC(=O)O)CCN(CC(=O)O)CC2)C(N)=O)NC(=O)[C@H](CC(N)=O)NC(=O)[C@H](Cc2c[nH]c3ccccc23)NC(=O)[C@H](CCC(N)=O)NC(=O)[C@H](CC(C)C)NC(=O)[C@H](Cc2c[nH]c3ccccc23)NC1=O

In the assay the target is T1, Biotinylated human DLL3. As to the kind of experiment: SPR, biotin-hDLL3 on SA chip. A general note: SPR reads the build-up and loss of mass on a sensor chip optically.
Turning to {DOTA-Ahx}-SDCW[NMeL]QWNCPFD-NH2 (disulfide 3-9) [Cpd #92], binding was put at a Kd of 5.56 nM.
With Ac-MSDCW[Cba]QWNCPFD[dK](DOTA)-NH2 (disulfide 4-10) [Cpd #70] the figure was 6.95 nM; with Ac-SDCWLK(DOTA)WNCPFD-NH2 (disulfide 3-9) [Cpd #87], 33.3 nM; with B1, 31.3 nM.
Ac-MSDCWLQWNC[αMeP]FD[dK](DOTA)-NH2 (disulfide 4-10) [Cpd #51] showed a dissociation constant (Kd) of 2.6 nM.
With Ac-MSDCW[Cha]QWNCPFD[dK](DOTA)-NH2 (disulfide 4-10) [Cpd #69] the figure was 16.4 nM; with Ac-[Chg]SDC[1Nal]LQWNC[dNMeA]FD[dK](DOTA)-NH2 (disulfide 4-10) [Cpd #94], 0.54 nM.
As to B2, the dissociation constant (Kd) was 93 nM.
With Ac-[Chg]SDCWLQWNCPFD[dK](DOTA)-NH2 (disulfide 4-10) [Cpd #77] the figure was 7.4 nM; with Ac-MSDCW[Chg]QWNCPFD[dK](DOTA)-NH2 (disulfide 4-10) [Cpd #71], 4.52 nM; with Ac-MSDCW[tBuAla]QWNCPFD[dK](DOTA)-NH2 (disulfide 4-10) [Cpd #67], 4.03 nM.
With B3, the Kd is > 300 nM.
Consider Ac-MSDCWLQ[Phe(4-CF3)]NCPFD[dK](DOTA)-NH2 (disulfide 4-10) [Cpd #65], for which binding was characterised by a dissociation constant (Kd) of 32.4 nM.
With Ac-SDCWLQWNCPFD[dK]([γGlu-DOTA])-NH2 (disulfide 3-9) [Cpd #88], the equilibrium dissociation constant (Kd) worked out at 9.7 nM.
For B4, the Kd was 2.5 nM.
In turn, Ac-MSDCWLQWNC[Pro(4,4-F2)]FD[dK](DOTA)-NH2 (disulfide 4-10) [Cpd #52] yielded a Kd of 17 nM. Against the preceding molecule, the Kd is about 6.8-fold higher.
Molecule B5 registered a Kd of 145 nM.
The molecule B6 yielded a Kd of 2.72 nM.
B7: the dissociation constant (Kd) stood at 19.6 nM.
Molecule Ac-MSDCW[Nle]QWNCPFD[dK](DOTA)-NH2 (disulfide 4-10) [Cpd #68] displayed a dissociation constant (Kd) of 15.8 nM. The Kd values of the last two molecules are within 1.5-fold of each other.
In turn, Ac-MSDCWLQ[Trp(7-aza)]NCPFD[dK](DOTA)-NH2 (disulfide 4-10) [Cpd #64] had a Kd of 20.1 nM.
As to Ac-[dE]SDCWLQWNCPFD[dK](DOTA)-NH2 (disulfide 4-10) [Cpd #82], the Kd worked out at 17.1 nM.
Take B8: binding was characterised by a dissociation constant (Kd) of 95.7 nM.
B9 yielded a Kd of 4.94 nM.
Turning to {hexanoic acid}-SDCWLQWNCPFD[dK](DOTA)-NH2 (disulfide 3-9) [Cpd #75], the equilibrium dissociation constant (Kd) was 9.6 nM.
